Consider nine molecules from patent US20170066831A1 (Janssen / Centocor, published 2017).

In assay [1] the target is T1, human ST2L extracellular domain with C-terminal His6 tag (human, UniProt Q01638 19-328).
T1 construct: also called huST2L-ECD; ST2L-ECD
T1 sequence: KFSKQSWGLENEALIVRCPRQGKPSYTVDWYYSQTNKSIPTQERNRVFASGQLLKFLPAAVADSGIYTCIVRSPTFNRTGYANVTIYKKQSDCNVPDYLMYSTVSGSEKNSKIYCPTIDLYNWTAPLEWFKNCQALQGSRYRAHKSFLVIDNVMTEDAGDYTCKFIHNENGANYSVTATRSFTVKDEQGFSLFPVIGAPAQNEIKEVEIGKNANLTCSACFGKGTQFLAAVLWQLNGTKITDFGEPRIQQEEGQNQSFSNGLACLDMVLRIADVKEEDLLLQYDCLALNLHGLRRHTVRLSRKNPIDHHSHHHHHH
Put plainly: RLB ELISA: biotinylated IL-33 on coated huST2L-ECD, antibody titrated. On the procedure: 96-well plate was coated with 50 μl of 4 μg/ml human ST2L-ECD (amino acids 19-328 of SEQ ID NO: 1) or 2 μg/ml cyno ST2L-ECD (amino acids 19-321 of SEQ ID NO: 2) having C-terminal His₆ tag in bicarbonate buffer at 4° C. for 16 hrs. All subsequent steps were performed at room temperature. Plate was blocked with 200 μl blocking buffer, and was washed 3 times with 300 μl of wash buffer containing PBS+0.05% Tween. 30 μl of various dilutions of anti-ST2L mAbs were added to the wells and incubated for 1 hour. For human receptor-ligand binding assay 20 μl of biotinylated human IL-33 (residues 112-270 of SEQ ID NO: 3) was added at 100 ng/ml final concentration and incubated for 30 minutes. For cyno receptor-ligand binding assay 20 μl of biotinylated cyno IL-33 (residues 112-269 of SEQ ID NO: 4) was added at 200 ng/ml final concentration and incubated for 30 minutes. The plate was washed 3 times with 300 μl of wash buffer. 50 μl of 0.2 μg/ml Streptavidin-HRP (Jackson Immunoresearch) was added and incubated for 30 min. The plate was washed 3 times with 300 μl of wash buffer containing PBS+0.05% Tween. 50 μl of TMB substrate (EMD Biosciences) was added to each well. Reaction was stopped by the addition of 100 μl of 0.2N Sulfuric Acid. OD450 were measured using Envision plate reader (Perkin Elmer).

Assay [2] deals with T2, human ST2L, full length, on cells (human, UniProt Q01638 19-556).
T2 sequence: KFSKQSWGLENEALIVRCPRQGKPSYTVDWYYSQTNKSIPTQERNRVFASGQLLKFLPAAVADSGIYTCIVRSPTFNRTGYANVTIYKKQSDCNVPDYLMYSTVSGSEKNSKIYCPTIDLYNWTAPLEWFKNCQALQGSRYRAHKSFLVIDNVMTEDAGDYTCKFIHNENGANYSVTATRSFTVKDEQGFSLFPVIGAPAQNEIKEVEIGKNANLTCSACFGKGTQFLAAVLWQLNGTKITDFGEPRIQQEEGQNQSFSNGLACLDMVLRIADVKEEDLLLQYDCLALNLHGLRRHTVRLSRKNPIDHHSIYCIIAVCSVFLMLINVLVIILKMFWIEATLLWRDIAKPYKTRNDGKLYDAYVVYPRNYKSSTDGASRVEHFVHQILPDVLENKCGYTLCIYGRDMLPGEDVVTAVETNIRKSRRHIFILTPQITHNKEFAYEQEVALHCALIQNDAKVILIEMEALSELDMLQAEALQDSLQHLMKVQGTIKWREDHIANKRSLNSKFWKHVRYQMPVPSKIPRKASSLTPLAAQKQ
As to the kind of experiment: cell-based or functional assay.

Assay [3] has as its target T3, cynomolgus (Macaca fascicularis) ST2L extracellular domain with C-terminal His6 tag (Macaca fascicularis (cynomolgus), UniProt Q01638 19-321 (human entry)).
T3 construct: also called cyno ST2L-ECD; cynoST2L-ECD
T3 chain: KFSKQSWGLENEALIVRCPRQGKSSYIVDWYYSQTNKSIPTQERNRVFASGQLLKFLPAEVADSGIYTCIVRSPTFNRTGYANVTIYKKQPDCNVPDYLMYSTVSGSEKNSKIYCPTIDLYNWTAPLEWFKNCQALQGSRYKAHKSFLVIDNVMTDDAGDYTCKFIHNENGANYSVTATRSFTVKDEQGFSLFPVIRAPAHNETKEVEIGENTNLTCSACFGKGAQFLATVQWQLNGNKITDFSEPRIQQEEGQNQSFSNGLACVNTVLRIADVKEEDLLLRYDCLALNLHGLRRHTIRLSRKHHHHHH
Put plainly: SPR, mAb captured, ST2L-ECD in solution.

The target of assay [4] is T1, human ST2L extracellular domain with …. Put plainly: SPR, mAb captured, ST2L-ECD in solution. Background: Surface plasmon resonance follows binding to a sensor surface in real time, without labels.

B1: STLM210 (antibody, V domains shown)
VH: EVQLLESGGGLVQPGGSLRLSCAASGFTFSDDAMIWVRQAPGKGLEWVSYIGGNGGTTYYADSVKGRFTISRDNSKNTLYLQMNSLRAEDTAVYYCARDPWSTEGSFFVLDYWGQGTLVTVSS
VL: EIVLTQSPATLSLSPGERATLSCRASQSVDDDLAWYQQKPGQAPRLLIYDASNRATGIPARFSGSGSGTDFTLTISSLEPEDFAVYYCQQYNDAITFGQGTKVEIK
notes: frameworks VH3-23 / Vk-L6
In the case of B1, in assay [1], inhibition was half-maximal at 0.3 µg/mL (IC50). The “RGA IC50” value in assay [2] is 2.1 µg/mL. Moreover, in assay [3], the affinity, expressed as Kd, was 0.009 nM; the koff (in general, the first-order rate constant of dissociation) turned out to be 0.000528 s⁻¹; the kon – broadly, a measure of how fast the partners come together – was 5.7e+07 M⁻¹ s⁻¹. For the same molecule, in assay [4], binding was characterised by a dissociation constant (Kd) of 0.019 nM, the koff worked out at 0.000227 s⁻¹ and the kon was determined as 1.21e+07 M⁻¹ s⁻¹.

B2: STLM212 (antibody, V domains shown)
VH: EVQLLESGGGLVQPGGSLRLSCAASGFTFSVYDMIWVRQAPGKGLEWVSTIRGEGGGTYYADSVKGRFTISRDNSKNTLYLQMNSLRAEDTAVYYCARDPWSTEGSFFVLDYWGQGTLVTVSS
VL: EIVLTQSPATLSLSPGERATLSCRASQSVDDDLAWYQQKPGQAPRLLIYDASNRATGIPARFSGSGSGTDFTLTISSLEPEDFAVYYCQQYNDAITFGQGTKVEIK
notes: frameworks VH3-23 / Vk-L6
As for B2, in assay [1], 0.33 µg/mL corresponded to half-maximal inhibition (IC50). Besides, the “RGA IC50” value in assay [2] turned out to be 4.32 µg/mL. In assay [3], the Kd (as a rule, the free concentration of one partner at which half of the binding sites on the other are occupied at equilibrium, for simple one-to-one binding) was found to be 0.024 nM; the koff worked out at 0.000346 s⁻¹; the on-rate (kon) came out at 1.43e+07 M⁻¹ s⁻¹. In assay [4], this molecule had an equilibrium dissociation constant (Kd) of 0.032 nM, a koff of 0.000398 s⁻¹ and an on-rate constant (kon) of 1.24e+07 M⁻¹ s⁻¹.

B3: STLM226 (antibody, V domains shown)
VH: EVQLVQSGAEVKKPGATVKISCKVSAFNIKDDYMHWVQQAPGKGLEWMGRIDPAIGNTEYAEKFQGRVTITADTSTDTAYMELSSLRSEDTAVYYCATGDFYAMAYWGQGTLVTVSS
VL: DIQMTQSPSSLSASVGDRVTITCITNTDIDDVIHWYQQKPGKAPKLLIYEGNTLRPGVPSRFSGSGSGTDFTLTISSLQPEDFATYYCLQSDNLLTFGQGTKLEIK
notes: VH STLH201 + VL STLL280
For B3, 0.26 µg/mL corresponded to half-maximal inhibition in assay [1] (IC50). The “RGA IC50” value in assay [2] turned out to be 0.25 µg/mL. In assay [3], the Kd was determined as 0.301 nM, the off-rate (koff) worked out at 0.0301 s⁻¹ and the kon turned out to be 1e+08 M⁻¹ s⁻¹. In assay [4], binding was characterised by a dissociation constant (Kd) of 0.09 nM, the koff amounted to 0.00193 s⁻¹ and the kon was determined as 2.16e+07 M⁻¹ s⁻¹.

B4: STLM227 (antibody, V domains shown)
VH: EVQLVQSGAEVKKPGATVKISCKVSAFNIKDDYMHWVQQAPGKGLEWMGRIDPAIGNTEYAEKFQGRVTITADTSTDTAYMELSSLRSEDTAVYYCATGDFYAMAYWGQGTLVTVSS
VL: DIQLTQSPSFLSASVGDRVTITCITNTDIDDVIHWYQQKPGKAPKLLIYEGNTLRPGVPSRFSGSGSGTEFTLTISSLQPEDFATYYCLQSDNMLTFGQGTKLEIK
notes: VH STLH201 + VL STLL277
In the case of B4, the IC50 (commonly the concentration needed to halve the response being measured) in assay [1] came out at 0.17 µg/mL. In addition, in assay [2], the “RGA IC50” value amounted to 0.23 µg/mL. In assay [3], this molecule yielded a Kd of 0.294 nM, a dissociation rate constant (koff) of 0.0294 s⁻¹ and an on-rate (kon) of 1e+08 M⁻¹ s⁻¹. In assay [4], this molecule showed a Kd of 0.064 nM, an off-rate constant (koff) of 0.0017 s⁻¹ and an on-rate constant (kon) of 2.66e+07 M⁻¹ s⁻¹.

B5: STLM231 (antibody, V domains shown)
VH: EVQLVQSGAEVKKPGATVKISCKVSAFNIKDDYMHWVQQAPGKGLEWMGRIDPAIGNTEYAEKFQGRVTITADTSTDTAYMELSSLRSEDTAVYYCATGDFYAMAYWGQGTLVTVSS
VL: DIQMTQSPSSLSASVGDRVTITCITNTDIDDVIHWYQQKPGKVPKLLIYEGNTLRPGVPSRFSGSGSGTDFTLTISSLQPEDVATYYCLQSDNMLTFGQGTKLEIK
notes: VH STLH201 + VL STLL273; also called S1LM231
The molecule B5 returned an IC50 in assay [1] of 0.26 µg/mL. In assay [2], the “RGA IC50” value worked out at 1.1 µg/mL. Besides, in assay [3], the Kd stood at 0.172 nM, the off-rate constant (koff) was 0.0143 s⁻¹ and the association rate constant (kon) was 8.27e+07 M⁻¹ s⁻¹. Further, in assay [4], the Kd is 0.046 nM, the off-rate (koff) is 0.000913 s⁻¹ and the on-rate (kon) worked out at 1.97e+07 M⁻¹ s⁻¹.

B6: STLM230 (antibody, V domains shown)
VH: EVQLVQSGAEVKKPGATVKISCKVSAFNIKDDYMHWVQQAPGKGLEWMGRIDPAIGNTEYAEKFQGRVTITADTSTDTAYMELSSLRSEDTAVYYCATGDFYAMAYWGQGTLVTVSS
VL: DIQMTQSPSSLSASVGDRVTITCITNTDIDDVIHWYQQKPGKAPKLLIYEGNTLRPGVPSRFSGSGSGTDFTLTISSLQPEDFATYYCLQSDNMLTFGQGTKLEIK
notes: VH STLH201 + VL STLL274
As to B6, it took 0.28 µg/mL to reach half-maximal inhibition in assay [1] (IC50). For the same molecule, the “RGA IC50” value in assay [2] is 0.15 µg/mL. In addition, in assay [3], the dissociation constant Kd was determined as 0.144 nM, the dissociation rate constant (koff) is 0.0073 s⁻¹ and the kon came out at 5.06e+07 M⁻¹ s⁻¹. Besides, in assay [4], the Kd came to 0.038 nM, the koff amounted to 0.000426 s⁻¹ and the kon is 1.11e+07 M⁻¹ s⁻¹.

B7: STLM228 (antibody, V domains shown)
VH: EVQLVQSGAEVKKPGATVKISCKVSAFNIKDDYMHWVQQAPGKGLEWMGRIDPAIGNTEYAEKFQGRVTITADTSTDTAYMELSSLRSEDTAVYYCATGDFYAMAYWGQGTLVTVSS
VL: DIQMTQSPSTLSASVGDRVTITCITNTDIDDVIHWYQQKPGKAPKLLIYEGNTLRPGVPSRFSGSGSGTEFTLTISSLQPDDFATYYCLQSDNMLTFGQGTKLEIK
notes: VH STLH201 + VL STLL276
With B7, in assay [1], the IC50 turned out to be 0.2 µg/mL. Also, the “RGA IC50” value in assay [2] turned out to be 0.28 µg/mL. Further, in assay [3], binding was put at a Kd of 0.155 nM, the off-rate constant (koff) was determined as 0.0155 s⁻¹ and the kon stood at 1e+08 M⁻¹ s⁻¹. In assay [4], this molecule yielded a dissociation constant (Kd) of 0.052 nM, a dissociation rate constant (koff) of 0.00104 s⁻¹ and an association rate constant (kon) of 2.01e+07 M⁻¹ s⁻¹.

B8: STLM232 (antibody, V domains shown)
VH: EVQLVQSGAEVKKPGATVKISCKVSAFNIKDDYMHWVQQAPGKGLEWMGRIDPAIGNTEYAEKFQGRVTITADTSTDTAYMELSSLRSEDTAVYYCATGDFYAMAYWGQGTLVTVSS
VL: DIQMTQSPSSLSASVGDRVTITCITNTDIDDVIHWYQQKPGKAPKLLIYEGNTLRPGVPSRFSGSGSGTDFTFTISSLQPEDIATYYCLQSDNMLTFGQGTKLEIK
notes: VH STLH201 + VL STLL272
Regarding B8, the IC50 in assay [1] was 0.31 µg/mL. Further, in assay [2], the “RGA IC50” value is 0.15 µg/mL. In assay [3], the Kd was 0.08 nM, the koff came out at 0.00797 s⁻¹ and the kon was 1e+08 M⁻¹ s⁻¹. In assay [4], this molecule displayed an equilibrium dissociation constant (Kd) of 0.025 nM, a koff of 0.000449 s⁻¹ and an on-rate constant (kon) of 1.78e+07 M⁻¹ s⁻¹.

B9: STLM229 (antibody, V domains shown)
VH: EVQLVQSGAEVKKPGATVKISCKVSAFNIKDDYMHWVQQAPGKGLEWMGRIDPAIGNTEYAEKFQGRVTITADTSTDTAYMELSSLRSEDTAVYYCATGDFYAMAYWGQGTLVTVSS
VL: DIQMTQSPSSVSASVGDRVTITCITNTDIDDVIHWYQQKPGKAPKLLIYEGNTLRPGVPSRFSGSGSGTDFTLTISSLQPEDFATYYCLQSDNMLTFGQGTKLEIK
notes: VH STLH201 + VL STLL275
As to B9, half-maximal inhibition in assay [1] (IC50) required 0.29 µg/mL. Further, in assay [2], the “RGA IC50” value amounted to 0.32 µg/mL. Besides, in assay [3], binding was characterised by a dissociation constant (Kd) of 0.085 nM, the koff worked out at 0.0085 s⁻¹ and the kon was determined as 1e+08 M⁻¹ s⁻¹. Also, in assay [4], the Kd is 0.035 nM, the koff is 0.000445 s⁻¹ and the kon was found to be 1.29e+07 M⁻¹ s⁻¹.
